Laboratory results from patent US20140079774A1.
Where no end group is shown, it is not given here.

Target: Met (hepatocyte growth factor receptor, c-Met) on Hep3B cells (human) (UniProt P08581)
Assay: flow cytometry saturation binding on Hep3B (cytochalasin D pre-treated), specific binding after subtraction of binding in saturating HGF; 0.015 wt % MC40 (~6 peptides/particle)

UniProt P08581, sequence (P08581 25-1390): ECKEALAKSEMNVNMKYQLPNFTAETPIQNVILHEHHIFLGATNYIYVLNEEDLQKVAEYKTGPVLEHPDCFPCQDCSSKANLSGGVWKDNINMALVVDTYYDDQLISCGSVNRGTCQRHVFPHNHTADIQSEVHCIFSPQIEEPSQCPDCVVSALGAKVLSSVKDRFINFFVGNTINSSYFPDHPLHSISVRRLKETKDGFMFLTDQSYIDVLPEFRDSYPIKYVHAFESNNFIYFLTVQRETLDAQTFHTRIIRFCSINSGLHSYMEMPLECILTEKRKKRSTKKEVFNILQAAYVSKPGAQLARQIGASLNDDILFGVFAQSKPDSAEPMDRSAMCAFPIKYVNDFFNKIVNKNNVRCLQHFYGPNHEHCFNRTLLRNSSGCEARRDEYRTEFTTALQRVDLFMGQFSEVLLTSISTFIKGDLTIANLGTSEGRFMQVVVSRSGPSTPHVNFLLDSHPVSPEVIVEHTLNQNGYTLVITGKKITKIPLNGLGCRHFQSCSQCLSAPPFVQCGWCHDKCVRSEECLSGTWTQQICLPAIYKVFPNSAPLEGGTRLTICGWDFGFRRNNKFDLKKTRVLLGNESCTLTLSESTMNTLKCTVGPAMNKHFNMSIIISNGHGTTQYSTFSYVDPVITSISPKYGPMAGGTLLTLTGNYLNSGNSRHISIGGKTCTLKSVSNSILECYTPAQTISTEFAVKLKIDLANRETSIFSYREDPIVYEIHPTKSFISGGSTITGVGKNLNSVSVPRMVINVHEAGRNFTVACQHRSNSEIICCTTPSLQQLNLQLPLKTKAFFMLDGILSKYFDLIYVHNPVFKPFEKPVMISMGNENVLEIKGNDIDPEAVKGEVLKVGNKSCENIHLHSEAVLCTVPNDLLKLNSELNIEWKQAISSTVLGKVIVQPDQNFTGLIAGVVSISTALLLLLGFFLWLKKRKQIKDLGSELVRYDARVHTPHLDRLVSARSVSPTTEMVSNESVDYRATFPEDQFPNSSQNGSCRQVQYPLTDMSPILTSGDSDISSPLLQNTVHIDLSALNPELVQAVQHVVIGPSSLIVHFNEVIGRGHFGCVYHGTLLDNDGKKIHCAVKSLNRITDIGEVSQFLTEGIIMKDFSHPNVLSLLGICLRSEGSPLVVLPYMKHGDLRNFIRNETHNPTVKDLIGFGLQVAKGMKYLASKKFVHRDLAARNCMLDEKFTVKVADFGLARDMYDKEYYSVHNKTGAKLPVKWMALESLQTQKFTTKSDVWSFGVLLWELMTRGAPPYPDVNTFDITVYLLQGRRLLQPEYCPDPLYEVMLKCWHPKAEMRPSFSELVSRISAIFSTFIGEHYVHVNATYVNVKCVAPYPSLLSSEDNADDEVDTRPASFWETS

B1: MC40-targeted protocells (mesoporous silica nanoparticle-supported lipid bilayers displaying the MC40 targeting peptide) (peptide, not shown: small tags and cut ends)
peptide: ASVHFPPC
modifications: also: C-terminal Cys conjugated via crosslinker to DOPE in the lipid bilayer of a mesoporous silica protocell
How did the Kd turn out when B1 was run?
The Kd was 1.05 nM.
